Experimental data taken from doi:10.1101/758409.

What was measured:
[1] = target: DDA1-DDB1ΔB-DCAF15Δpro triplex (human) (UniProt Q66K64); experiment: BLI
[2] = target: DDA1-DDB1ΔB-DCAF15Δpro triplex (human) (UniProt Q66K64); experiment: ITC

Sequence of RRM1-RRM2 domain of RBM39 (R1R2) (Q14498 150-331): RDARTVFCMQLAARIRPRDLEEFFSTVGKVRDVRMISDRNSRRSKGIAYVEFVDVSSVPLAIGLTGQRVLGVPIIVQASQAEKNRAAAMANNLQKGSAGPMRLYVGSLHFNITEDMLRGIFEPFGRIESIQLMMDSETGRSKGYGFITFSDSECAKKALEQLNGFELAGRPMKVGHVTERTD

Row | Kd [1] | Kd [2] | Substance
1 | 1.2 µM | – | R1R2(M265L) (from UniProt Q14498 150-331) (domain or fragment)
2 | 4.6 µM | 6.4 µM | RRM1-RRM2 domain of RBM39 (R1R2) (from UniProt Q14498 150-331) (domain or fragment)
